# Reference: patent US20220406376A1 (MacroGenics, published 2022)
# T1: 5T4 on the surface of target cells (JIMT-1, SKOV-3) (UniProt Q13641 32-420, limits assumed)
# T1 construct: whole, on cells
# T1 sequence (looked up): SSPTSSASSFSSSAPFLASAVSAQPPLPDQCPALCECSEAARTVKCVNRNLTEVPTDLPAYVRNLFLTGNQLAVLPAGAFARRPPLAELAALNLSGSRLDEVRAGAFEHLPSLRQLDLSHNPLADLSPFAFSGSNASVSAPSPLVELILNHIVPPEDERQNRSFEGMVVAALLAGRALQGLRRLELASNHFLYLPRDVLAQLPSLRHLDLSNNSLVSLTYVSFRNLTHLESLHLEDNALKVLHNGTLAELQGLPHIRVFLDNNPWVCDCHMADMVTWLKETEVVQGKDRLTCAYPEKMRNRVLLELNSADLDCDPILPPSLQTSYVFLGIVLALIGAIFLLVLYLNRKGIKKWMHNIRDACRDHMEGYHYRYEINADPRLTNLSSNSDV
# B1: hCD137 MAB-3 (1B.3) (antibody, V domains shown)
# VH: QVQLVQSGAEVKKPGASVKVSCKASGYTFTSYWINWVKQAPGQGLEWIGNIYPSDSYTNYNQKFKDKATITADKSTSTAYMELSSLRSEDTAVYYCTRDYGSAYSMSTWGQGTTVTVSS
# VL: DIQMTQSPSSLSASVGDRVTITCRPSQDISNYLNWYQQKPDKTVKLLIYYTSRLRSGVPSRFSGSGSGTDFTFTISSLQPEDIATYFCQQGDTLPYTFGQGTKLEIK
# B2: TRIDENT-B2 (bispecific antibody, human IgG1, kappa, L234A L235A)
# chain 1: DIQMTQSPSSLSASVGDRVTITCRPSQDISNYLNWYQQKPDKTVKLLIYYTSRLRSGVPSRFSGSGSGTDFTFTISSLQPEDIATYFCQQGDTLPYTFGQGTKLEIKGGGSGGGGQVQLVQSGAEVKKPGASVKVSCKASGYTFTSYWINWVKQAPGQGLEWIGNIYPSDSYTNYNQKFKDKATITADKSTSTAYMELSSLRSEDTAVYYCTRDYGSAYSMSTWGQGTTVTVSSASTKGEVAACEKEVAALEKEVAALEKEVAALEKGGGDKTHTCPPCPAPEAAGGPSVFLFPPKPKDTLMISRTPEVTCVVVDVSHEDPEVKFNWYVDGVEVHNAKTKPREEQYNSTYRVVSVLTVLHQDWLNGKEYKCKVSNKALPAPIEKTISKAKGQPREPQVYTLPPSREEMTKNQVSLWCLVKGFYPSDIAVEWESNGQPENNYKTTPPVLDSDGSFFLYSKLTVDKSRWQQGNVFSCSVMHEALHNHYTQKSLSLSPGK
# chain 2: DIQMTQSPSSLSASVGDRVTITCRPSQDISNYLNWYQQKPDKTVKLLIYYTSRLRSGVPSRFSGSGSGTDFTFTISSLQPEDIATYFCQQGDTLPYTFGQGTKLEIKGGGSGGGGQVQLVQSGAEVKKPGASVKVSCKASGYTFTSYWINWVKQAPGQGLEWIGNIYPSDSYTNYNQKFKDKATITADKSTSTAYMELSSLRSEDTAVYYCTRDYGSAYSMSTWGQGTTVTVSSASTKGKVAACKEKVAALKEKVAALKEKVAALKE
# heavy: QVQLVQSGAEVKKPGASVKVSCKASGYTFTSFWMHWVRQAPGQGLEWMGRIDPNRGGTEYNEKAKSRVTMTADKSTSTAYMELSSLRSEDTAVYYCAGGNPYYPMDYWGQGTTVTVSSASTKGPSVFPLAPSSKSTSGGTAALGCLVKDYFPEPVTVSWNSGALTSGVHTFPAVLQSSGLYSLSSVVTVPSSSLGTQTYICNVNHKPSNTKVDKRVEPKSCDKTHTCPPCPAPEAAGGPSVFLFPPKPKDTLMISRTPEVTCVVVDVSHEDPEVKFNWYVDGVEVHNAKTKPREEQYNSTYRVVSVLTVLHQDWLNGKEYKCKVSNKALPAPIEKTISKAKGQPREPQVYTLPPSREEMTKNQVSLSCAVKGFYPSDIAVEWESNGQPENNYKTTPPVLDSDGSFFLVSKLTVDKSRWQQGNVFSCSVMHEALHNRYTQKSLSLSPGK
# light: DIQMTQSPSSLSASVGDRVTITCRASQGISNYLAWFQQKPGKAPKSLIYRANRLQSGVPSRFSGSGSGTDFTLTISSLQPEDVATYYCLQYDDFPWTFGQGTKLEIKRTVAAPSVFIFPPSDEQLKSGTASVVCLLNNFYPREAKVQWKVDNALQSGNSQESVTEQDSKDSTYSLSSTLTLSKADYEKHKVYACEVTHQGLSSPVTKSFNRGEC
# B3: TRIDENT-3 (other)
# chain 1: DIQMTQSPSTLSASVGDRVTITCRASQSVGYMHWYQQKPGKAPKLLIYDTSKLASGVPSRFSGSGSGTEFTLTISSLQPDDFATYYCFQGSGYPFTFGGGTKLEIKGGGSGGGGEVKLDETGGGLVQPGRPMKLSCVASGFTFSDYWMNWVRQSPEKGLEWVAQIRNKPYNYETYYSDSVKGRFTISRDDSKSSVYLQMNNLRVEDMGIYYCTGSYYGMDYWGQGTSVTVSSASTKGEVAACEKEVAALEKEVAALEKEVAALEKGGGDKTHTCPPCPAPEAAGGPSVFLFPPKPKDTLMISRTPEVTCVVVDVSHEDPEVKFNWYVDGVEVHNAKTKPREEQYNSTYRVVSVLTVLHQDWLNGKEYKCKVSNKALPAPIEKTISKAKGQPREPQVYTLPPSREEMTKNQVSLWCLVKGFYPSDIAVEWESNGQPENNYKTTPPVLDSDGSFFLYSKLTVDKSRWQQGNVFSCSVMHEALHNHYTQKSLSLSPGK
# chain 2: DVVMTQTPFSLPVSLGDQASISCRSSQSLVHSNGNTYLRWYLQKPGQSPKVLIYKVSNRFSGVPDRFSGSGSGTDFTLKISRVEAEDLGVYFCSQSTHVPWTFGGGTKLEIKGGGSGGGGQVTLRESGPALVKPTQTLTLTCTFSGFSLSTSGMSVGWIRQPPGKALEWLADIWWDDKKDYNPSLKSRLTISKDTSKNQVVLKVTNMDPADTATYYCARSMITNWYFDVWGAGTTVTVSSASTKGKVAACKEKVAALKEKVAALKEKVAALKE
# heavy: QVQLVQSGAEVKKPGASVKVSCKASGYTFTSFWMHWVRQAPGQGLEWMGRIDPNRGGTEYNEKAKSRVTMTADKSTSTAYMELSSLRSEDTAVYYCAGGNPYYPMDYWGQGTTVTVSSASTKGPSVFPLAPSSKSTSGGTAALGCLVKDYFPEPVTVSWNSGALTSGVHTFPAVLQSSGLYSLSSVVTVPSSSLGTQTYICNVNHKPSNTKVDKRVEPKSCDKTHTCPPCPAPEAAGGPSVFLFPPKPKDTLMISRTPEVTCVVVDVSHEDPEVKFNWYVDGVEVHNAKTKPREEQYNSTYRVVSVLTVLHQDWLNGKEYKCKVSNKALPAPIEKTISKAKGQPREPQVYTLPPSREEMTKNQVSLSCAVKGFYPSDIAVEWESNGQPENNYKTTPPVLDSDGSFFLVSKLTVDKSRWQQGNVFSCSVMHEALHNRYTQKSLSLSPGK
# light: DIQMTQSPSSLSASVGDRVTITCRASQGISNYLAWFQQKPGKAPKSLIYRANRLQSGVPSRFSGSGSGTDFTLTISSLQPEDVATYYCLQYDDFPWTFGQGTKLEIKRTVAAPSVFIFPPSDEQLKSGTASVVCLLNNFYPREAKVQWKVDNALQSGNSQESVTEQDSKDSTYSLSSTLTLSKADYEKHKVYACEVTHQGLSSPVTKSFNRGEC
# B4: TRIDENT-B5 (bispecific antibody, human IgG1, kappa, L234A L235A)
# chain 1: DIQMTQSPSSLSASVGDRVTITCQASQDISNYLNWYQQKPDKTVKLLIYYTGRARSGVPSRFSGSGSGTDFTFTISSLQPEDIATYFCQQGDTLPYTFGQGTKLEIKGGGSGGGGQVQLVQSGAEVKKPGASVKVSCKASGYTFTSYWINWVRQAPGQGLEWIGNIYPSDSYTNYNQKFKDKATITADKSTSTAYMELSSLRSEDTAVYYCTRDYGSAYSMSTWGQGTTVTVSSASTKGEVAACEKEVAALEKEVAALEKEVAALEKGGGDKTHTCPPCPAPEAAGGPSVFLFPPKPKDTLMISRTPEVTCVVVDVSHEDPEVKFNWYVDGVEVHNAKTKPREEQYNSTYRVVSVLTVLHQDWLNGKEYKCKVSNKALPAPIEKTISKAKGQPREPQVYTLPPSREEMTKNQVSLWCLVKGFYPSDIAVEWESNGQPENNYKTTPPVLDSDGSFFLYSKLTVDKSRWQQGNVFSCSVMHEALHNHYTQKSLSLSPGK
# chain 2: DIQMTQSPSSLSASVGDRVTITCQASQDISNYLNWYQQKPDKTVKLLIYYTGRARSGVPSRFSGSGSGTDFTFTISSLQPEDIATYFCQQGDTLPYTFGQGTKLEIKGGGSGGGGQVQLVQSGAEVKKPGASVKVSCKASGYTFTSYWINWVRQAPGQGLEWIGNIYPSDSYTNYNQKFKDKATITADKSTSTAYMELSSLRSEDTAVYYCTRDYGSAYSMSTWGQGTTVTVSSASTKGKVAACKEKVAALKEKVAALKEKVAALKE
# heavy: QVQLVQSGAEVKKPGASVKVSCKASGYTFTSFWMHWVRQAPGQGLEWMGRIDPNRGGTEYNEKAKSRVTMTADKSTSTAYMELSSLRSEDTAVYYCAGGNPYYPMDYWGQGTTVTVSSASTKGPSVFPLAPSSKSTSGGTAALGCLVKDYFPEPVTVSWNSGALTSGVHTFPAVLQSSGLYSLSSVVTVPSSSLGTQTYICNVNHKPSNTKVDKRVEPKSCDKTHTCPPCPAPEAAGGPSVFLFPPKPKDTLMISRTPEVTCVVVDVSHEDPEVKFNWYVDGVEVHNAKTKPREEQYNSTYRVVSVLTVLHQDWLNGKEYKCKVSNKALPAPIEKTISKAKGQPREPQVYTLPPSREEMTKNQVSLSCAVKGFYPSDIAVEWESNGQPENNYKTTPPVLDSDGSFFLVSKLTVDKSRWQQGNVFSCSVMHEALHNRYTQKSLSLSPGK
# light: DIQMTQSPSSLSASVGDRVTITCRASQGISNYLAWFQQKPGKAPKSLIYRANRLQSGVPSRFSGSGSGTDFTLTISSLQPEDVATYYCLQYDDFPWTFGQGTKLEIKRTVAAPSVFIFPPSDEQLKSGTASVVCLLNNFYPREAKVQWKVDNALQSGNSQESVTEQDSKDSTYSLSSTLTLSKADYEKHKVYACEVTHQGLSSPVTKSFNRGEC
# notes: also called TRIDENT-BS
# Experiments:
# [1] = biological target: T2, CD137 on the surface of cells (activated human T cells; engineered CHO cells) (human, UniProt Q07011 24-255); experiment: flow cytometry on activated pan T cells gated CD8+ (donor D43867), anti-hFc APC MFI
# T2 construct: whole, on cells; also called human CD137; cell surface expressed CD137
# T2 sequence (Q07011 24-255, change not shown): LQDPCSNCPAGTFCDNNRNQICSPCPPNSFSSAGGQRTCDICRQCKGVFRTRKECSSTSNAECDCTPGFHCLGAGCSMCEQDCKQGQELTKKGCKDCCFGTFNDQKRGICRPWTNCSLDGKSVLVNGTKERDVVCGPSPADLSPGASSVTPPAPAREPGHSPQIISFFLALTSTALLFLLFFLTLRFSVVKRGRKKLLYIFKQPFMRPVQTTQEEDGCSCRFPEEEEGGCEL
# Description: Three antibodies were selected for further study. For such evaluations, purified pan T-cells (see above) were stimulated with anti-CD3/CD28 beads (cells:beads=1:1) for 72 hours in the presence of IL-2 (100 U/mL). 100 μL of activated T cells (1.0×10⁶ cells/mL) and 100 μL of serially diluted (5- or 10-fold dilutions) test article (antibody or bispecific diabody) was added to each well of microtiter assay plate(s), mixed and incubated at RT for 45 min. The cells were washed with FACS Buffer and secondary antibody (anti-human-Fc region-APC) was then added to each well; mixed and incubated at RT for 30 min. Cells were then washed FACS Buffer and T cell surface marker antibodies (anti-CD4 labeled with V510, and anti-CD8 labeled with FITC) were then added to each well; mixed and incubated at RT for 30 min. Cells were washed and resuspended in 100 μL FACS Buffer and analyzed by flow cytometry (BD LSR Fortessa or FACSCanto 11) for cell event collection. Data analysis were performed via FloJo v10.
# [2] = biological target: T1, 5T4 on the surface of target cells …; experiment: flow cytometry on JIMT-1 (5T4 hi) cells, anti-hFc APC MFI
# [3] = biological target: T1, 5T4 on the surface of target cells …; experiment: flow cytometry on SKOV-3 (5T4 lo) cells, anti-hFc APC MFI
# [4] = biological target: T2, CD137 on the surface of cells …; experiment: flow cytometry on activated CD8+ T cells (donor D59788, CD8 FITC), anti-hFc APC MFI
Binder,EC50 (read off the curve) [1] [µg/mL],EC50 (read off the curve) [2] [µg/mL],EC50 (read off the curve) [3] [µg/mL],EC50 (read off the curve) [4] [µg/mL]
B1,~0.007,,,
B2,,~0.08,~0.04,~0.007
B3,,~0.08,~0.04,
B4,,~0.08,~0.04,~0.007
